Measured values reported in the RNAGym collection of RNA variant scans (doi:10.1073/pnas.2313332121).
Variants at the floor of the assay were thinned out.

B1: TPR 5TU (parent)
chain: GGAUCUUCUCGAUCUAACAAAAAAGACAAAUCUGCCACAAAGCUUGAGAGCAUCUUCGGAUGCAGAGGCGGCAGCCUUCGGUGGCGCGAUAGCGCCAACGUUCUCAACUAUGACACGCAAAACGCGUGCUCCGUUGAAUGGAGUUUAUCAUG

Variants of: B1
Test: polymerase ribozyme fitness, log enrichment relative to wild type (log ratio); higher = more active; in vitro selection for triplet polymerase activity
In short: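 PCR was used to build mutant libraries for each subunit of a heterodimeric triplet polymerase ribozyme, which were then transcribed. A single in vitro selection round, in triplicate, used a frozen incubation at −7 °C and recovered extended constructs by gel excision, streptavidin beads and RT-PCR. Fitness is the logarithm of genotype enrichment relative to wild-type enrichment, averaged over replicates with inverse-variance weights. The logarithm is base 2, and after Illumina sequencing only genotypes with ≥10 input reads and ≥1 read per output were kept.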

| Variant | polymerase ribozyme fitness (log ratio) |
| --- | --- |
| A19U A20U C57G G58A G88U G92C C125A C131U U148C C149A | ≤ -4.2 |
| A21U A91U | ≤ -4.2 |
| G58A A73G C85G A98C | -1.02 |
| A30G C79U G140C | ≤ -4.2 |
| C93G | -3.35 |
| A19U U55G G88U U104G | ≤ -4.2 |
| A26U A40U A120U | -2.33 |
| A17G A39U G94U G141A | -4.08 |
| A3U C57U C85A C118U C125A | -2.55 |
| C18A G83A A107C A110C | ≤ -4.2 |
| A23C A110G U111A | ≤ -4.2 |
| U4A A12C G50A G84U G141U | -3.8 |
| G42A U55A C85U A97U G140C | ≤ -4.2 |
| G84A U101G A122U U146C | -0.376 |
| C14U A30G G48A C76G A98U U102G | ≤ -4.2 |
| A113U U127C | -2.98 |
| A49G U53A C54U | -2.09 |
| A19G C35U C51U C96U | -1.35 |
| C54A U56A C96U C105U G126A | -2.51 |
| A37G C57U G71U G92C C96U A97C A150C U151A | ≤ -4.2 |
| U56A U146A | -0.732 |

| Variant | polymerase ribozyme fitness (log ratio) |
| --- | --- |
| C54U G81A C93U C105A | -2.59 |
| C8A C87A C99U | ≤ -4.2 |
| U139G | -0.159 |
| G86U C96U | -2.68 |
| A20U C43U C96U C114U G141C | ≤ -4.2 |
| C96U G124C | -0.743 |
| A52G G83A C118U A150G | -2.35 |
| G88U C93A | -3.73 |
| A47C G81C C87G C96U | ≤ -4.2 |
| A40U U90G C118G G133C U148G | ≤ -4.2 |
| A16U C36U C51A G92A | ≤ -4.2 |
| U6G G11A A19C A21C A24G C36G U56A U82A A142C | ≤ -4.2 |
| C69A G86A C149A | ≤ -4.2 |
| C54A G83U U134A U148C | ≤ -4.2 |
| A49C C87G | ≤ -4.2 |
| G58C G126U | -0.916 |
| A28U A49C U56A C95A C96U C108U | ≤ -4.2 |
| C36A A64C G86C G133U | ≤ -4.2 |
| C38A A41C U61A G94A C131A G141A U144G U151A | ≤ -4.2 |
| A22C G65A U104G A107C U127G | ≤ -4.2 |
| C10A C32G U139G | ≤ -4.2 |

| Variant | polymerase ribozyme fitness (log ratio) |
| --- | --- |
| C95U C132G A150U | -3.31 |
| C14U G86U | -3.21 |
| C54A G70U A91U C114U A119U A120U | ≤ -4.2 |
| C69A C85U | -1.65 |
| G84A U102A C132U | -2.3 |
| C85G U151C | -4.2 |
| G68A C79U A91G | -4.14 |
| A3U A37G G59U G86A C99A U130C G141U | ≤ -4.2 |
| U4G C5U A24U A26U G65U G88U G94U A98G G124U G143U | ≤ -4.2 |
| G65U | -3.1 |
| C85A C103A C125A | -3.33 |
| A28U U82G A137C | ≤ -4.2 |
| U53A U78A C85U U102C | ≤ -4.2 |
| A21G A49U C57G A150G | ≤ -4.2 |
| U31A U78C U146C | -0.876 |
| A16G C85U | -0.908 |
| G81A U104G C105A G136C U146C | ≤ -4.2 |
| G48C A52C C85G G92C A119U G126A A138U | ≤ -4.2 |
| G92A C95A | -3.27 |
| U56A U61G U134G | -3.93 |
| A22U G48C G50U A120U U145C | -2.9 |

| Variant | polymerase ribozyme fitness (log ratio) |
| --- | --- |
| A23C G25C C32U A52C C85A | ≤ -4.2 |
| A98U | -0.453 |
| G11C A26G C93A A120U G126C | -3.54 |
| C75U C87U | 0.0996 |
| G46A G59A | 0.222 |
| A3G C8G A28G G46U G50A G67C G92C A107U U151G | ≤ -4.2 |
| C5U C18G G59A C93U C132U | -2.33 |
| A17G G62U C87U A122G U127G C132G | ≤ -4.2 |
| C76U G83A | -0.0654 |
| C51U G67A U77G C116G G126A C129A | ≤ -4.2 |
| U53C U56A G58A C76A A120G U134C | -3.01 |
| U45A A52U C85A U139G | ≤ -4.2 |
| A19U G62A A73U A110G A121U | ≤ -4.2 |
| A39C C85U | -2.48 |
| A12C A19U G80U A89G C96A | ≤ -4.2 |
| C76A C87G | -4.07 |
| G59U C96U A98U | -0.711 |
| C5A C93A | -1.25 |
| C35U A37G U61A A64U C149G | ≤ -4.2 |
| A29U G68A G81A | ≤ -4.2 |
| A12U C38U C129G | ≤ -4.2 |
